This data set addresses T1, His6-DnaA (IV) (Cyanothece ATCC 51142, UniProt B1X0X6 331-455).
T1 sequence: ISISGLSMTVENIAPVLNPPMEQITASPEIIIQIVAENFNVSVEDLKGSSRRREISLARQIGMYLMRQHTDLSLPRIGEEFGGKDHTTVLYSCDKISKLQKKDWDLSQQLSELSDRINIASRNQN
The data set can be described thus: EMSA; 5-100 nM protein; 3 mM ATP, poly(dI-dC); better affinity than Lbox23; EMSA: 20 mM Hepes/KOH pH 8.0, 5 mM Mg acetate, 1 mM Na2EDTA, 4 mM DTT, 0.2% Triton X-100, 3 mM ATP, 5 mg/mL BSA, poly(dI-dC), 37 C 30 min; footprint: 25 C 30 min, 400 ng probe in 40 uL. Conditions: protein: recombinant; tags: N-terminal His6 (pET-28a, BamHI/HindIII); blunt. On the technique in general: In EMSA bound probe runs differently from free probe, usually more slowly.

Here are results for 1 molecule from PMC4674748, “Identification of the Replication Origins from Cyanothece ATCC 51142 and Their Interactions with the DnaA Protein: From In Silico to In Vitro Studies”.

B1: Cbox23 (2Box2B, 35 nt) (dsDNA)
DNA 1: CCTTTAAATTTTTCCACAGTTTTTCCACAGCATTA
DNA 2: TAATGCTGTGGAAAAACTGTGGAAAAATTTAAAGG
Turning to B1, the binding result is “binds”.
